The source of these data is paper PMC9412104, “Biochemical and Structural Insights on the Poplar Tau Glutathione Transferase GSTU19 and 20 Paralogs Binding Flavonoids” (Frontiers in Molecular Biosciences, 2022).

By Km is commonly meant the substrate concentration at which the rate is half of its maximum. By kcat is commonly meant the number of substrate molecules converted per active site and unit of time at saturation. The kcat/Km is the second-order rate constant that governs catalysis at low substrate concentration. Usually stoichiometry N stands for a count of units in the complex or per binding partner.

Data set [1] concerns CCCC(=O)Oc1ccc([N+](=O)[O-])cc1. In words: GSH-conjugation activity toward model substrates, variant. The note with it: mean ± S.D., n = 3, pH 8.0. Format: biochemical, Populus trichocarpa.
Description: Peroxidase activity toward hydroperoxides was measured using an NADPH coupled spectrophotometric assay ([Pégeot et al., 2014]).
The measured velocities were corrected by subtracting the rate of the spontaneous nonenzymatic reaction, and three independent experiments were performed at each substrate concentration.
The test system is the same in data set [2]. In words: purified protein, by the assay type. The note with it: pH 8.0.
For data set [3], the system named is CCCCCC(O)C=CC=O. As to the kind of experiment: purified protein, by the assay type. The note with it: pH 8.0; 25.0 °C.
The test system of data set [4] is S=C=NCCc1ccccc1. As to the kind of experiment: purified protein, by the assay type. The note with it: pH 8.0; 25.0 °C.
Data set [5] deals with S=C=NCc1ccccc1. As to the kind of experiment: purified protein, by the assay type. The note with it: pH 8.0.
Data set [6] concerns the target Populus trichocarpa tau glutathione transferase GSTU20 (PtGSTU20) (Populus trichocarpa). In words: SEC-MALS; purified untagged recombinant protein; conditions not told in the text shown (Supplementary Figure S3B).
Data set [7] has as its target Populus trichocarpa tau glutathione transferase GSTU19 (PtGSTU19) (Populus trichocarpa). Described as above.
Setting [8] is: other: PtGSTU19 Y160F, fixed saturating GSH.
Where [9] appears, read: other: PtGSTU19 Y160A, fixed saturating GSH.
Where [10] appears, read: other: line printed as PtGSTU19 C160Y in Table S4, fixed saturating GSH.
[11] abbreviates: other: PtGSTU19 Y160C, fixed saturating GSH.

Sequence of PtGSTU19 (Populus trichocarpa) (chain, as listed by the source): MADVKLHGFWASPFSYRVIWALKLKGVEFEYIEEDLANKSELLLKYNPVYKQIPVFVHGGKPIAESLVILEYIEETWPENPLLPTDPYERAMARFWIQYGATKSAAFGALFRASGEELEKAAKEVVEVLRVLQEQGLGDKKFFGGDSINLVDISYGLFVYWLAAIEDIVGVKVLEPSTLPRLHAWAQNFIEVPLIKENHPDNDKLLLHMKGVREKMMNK
Sequence of PtGSTU19Y160A (Populus trichocarpa; Y160A) (chain, as listed by the source Y160A): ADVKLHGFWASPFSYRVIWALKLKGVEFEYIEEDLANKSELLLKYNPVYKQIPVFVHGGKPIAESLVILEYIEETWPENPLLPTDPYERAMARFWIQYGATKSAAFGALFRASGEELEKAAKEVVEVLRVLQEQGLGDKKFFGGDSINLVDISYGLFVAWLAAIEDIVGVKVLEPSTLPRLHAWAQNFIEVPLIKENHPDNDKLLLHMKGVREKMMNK
Sequence of PtGSTU20 (Populus trichocarpa) (chain, as listed by the source): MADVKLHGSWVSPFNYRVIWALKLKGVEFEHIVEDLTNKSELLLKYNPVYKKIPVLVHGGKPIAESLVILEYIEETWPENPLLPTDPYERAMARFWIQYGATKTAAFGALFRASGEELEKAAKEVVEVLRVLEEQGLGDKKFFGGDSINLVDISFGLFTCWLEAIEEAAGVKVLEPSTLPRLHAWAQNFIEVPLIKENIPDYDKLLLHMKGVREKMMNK
Sequence of PtGSTU19Y160C (Populus trichocarpa; Y160C) (chain, as listed by the source Y160C): as the sequence (chain, as listed by the source Y160A) above, with A159C counted along it
Sequence of PtGSTU20C160Y (Populus trichocarpa; C160Y) (chain, as listed by the source C160Y): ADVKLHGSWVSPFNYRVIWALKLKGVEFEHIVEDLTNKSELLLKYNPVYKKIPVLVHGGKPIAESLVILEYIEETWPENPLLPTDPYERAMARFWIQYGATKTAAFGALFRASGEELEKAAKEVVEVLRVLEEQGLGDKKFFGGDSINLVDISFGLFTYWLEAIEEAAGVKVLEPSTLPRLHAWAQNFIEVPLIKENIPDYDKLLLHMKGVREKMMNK
Sequence of PtGSTU19Y160F (Populus trichocarpa; Y160F) (chain, as listed by the source Y160F): as the sequence (chain, as listed by the source Y160A) above, with A159F counted along it

As for “PtGSTU19Y160F (Populus trichocarpa; Y160F)”, in data set [1] (setting [8]), the Km is given as 693.2 ± 63.8 µM, the kcat came out at 0.050 ± 0.002 s⁻¹ and the kcat/Km is on record as 0.080 ± 0.003 103M-1.s-1.
“PtGSTU19Y160A (Populus trichocarpa; Y160A)”: in data set [1] (setting [9]), the Km is given as 534.6 ± 68.1 µM, the catalytic constant (kcat) was found to be 0.050 ± 0.002 s⁻¹ and the kcat/Km is reported as 0.090 ± 0.004 103M-1.s-1.
In the case of PtGSTU20 (Populus trichocarpa), the Km in data set [2] turned out to be 329.2 ± 28.1 µM; in data set [3], 30.6 ± 3.5 µM; in data set [4] it was 56.8 ± 4.1 µM; in data set [5] it was 149.6 ± 17.6 µM. The kcat is 0.02 ± 0.001 s⁻¹ in data set [2], 0.11 s⁻¹ in data set [3], 5.1 s⁻¹ in data set [4] and 10.4 ± 0.3 s⁻¹ in data set [5]. For the same substance, the kcat/Km in data set [2] came to 60 ± 3 M⁻¹ s⁻¹; in data set [3], 3600 M⁻¹ s⁻¹; in data set [4] it was 88900 M⁻¹ s⁻¹; in data set [5], 69800 ± 2200 M⁻¹ s⁻¹.
As for “PtGSTU20C160Y (Populus trichocarpa; C160Y)”, in data set [1] (setting [10]), the Km stood at 326.2 ± 67.6 µM, the catalytic constant (kcat) stood at 0.020 ± 0.001 s⁻¹ and the kcat/Km is 0.060 ± 0.003 103M-1.s-1.
Take “PtGSTU19Y160C (Populus trichocarpa; Y160C)”: in data set [1] (setting [11]), the Michaelis constant (Km) was found to be 518.3 ± 57.6 µM, the kcat came to 0.050 ± 0.002 s⁻¹ and the kcat/Km is given as 0.100 ± 0.003 103M-1.s-1.
Take PtGSTU19 (Populus trichocarpa): the Michaelis-Menten constant (Km) was found to be 443.5 ± 31.1 µM in data set [2], 56.4 ± 7.4 µM in data set [3], 48.4 ± 2.5 µM in data set [4] and 52.7 ± 3.6 µM in data set [5]. Also, the kcat was 0.04 ± 0.001 s⁻¹ in data set [2], 0.11 s⁻¹ in data set [3], 3.8 s⁻¹ in data set [4] and 7 ± 0.1 s⁻¹ in data set [5]. The kcat/Km came out at 100 ± 2 M⁻¹ s⁻¹ in data set [2], 2000 M⁻¹ s⁻¹ in data set [3], 79000 M⁻¹ s⁻¹ in data set [4] and 132200 ± 200 M⁻¹ s⁻¹ in data set [5].
As for “Populus trichocarpa tau glutathione transferase GSTU20 (PtGSTU20) (enzyme)”, the stoichiometry N in data set [6] came to 2.
In the case of “Populus trichocarpa tau glutathione transferase GSTU19 (PtGSTU19) (enzyme)”, the stoichiometry N in data set [7] stood at 2.
